Reference: the supplement of paper PMC7877785
± gives the uncertainty stated by the source.

Experiment: self-splicing fitness, log relative to wild type (ln ratio); higher = more splicing; Tetrahymena group I intron in knt gene, E. coli kanamycin selection, DiMSum; sequences stand for … in CUCUCU…GGAGGGAAAAGUUAUCAGGCAUGCACCUGGUAGCUAGUCUUUAAACCAAUAGAUUGCAUCGGUUUAAAAGGCAAGACCGUCAAAUUGCGGGAAAGGGGUCAACAGCCGUUCAGUACCAAGUCUCAGGGGAAACUUUGAGAUGGCCUUGCAAAGGGUAUGGUAAUAAGCUGACGGACAUGGUCCUAACCACGCAGCCAAGUCCUAAGUCAACAGAUCUUCUGUUGAUAUGGAUGCAGUUCACAGACUAAAUGUCGGUCGGGGAAGAUGUAUUCUUCUCAUAAGAUAUAGUCGGACCUCUCCUUAAUGGGAGCUAGCGGAUGAAGUGAUGCAACACUGGAGCCGCUGGGAACUAAUUUGUAUGCGAAAGUAUAUUGAUUAGUUUUGGAGUACUCGUGGUCG
Method in brief: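 Fitness was computed with DiMSum as the error-weighted combination of replicate fold changes, kanamycin versus none, each normalised to wild type. The library randomised all eight intron nucleotides of the P1ex region, with the intron placed in the knt kanamycin-resistance gene on pET-22b(+) in E. coli BL21(DE3). Six replicate transformations were grown overnight at 37°C or 30°C on LB agar with or without 25 μg/mL kanamycin, plus 100 μg/mL carbenicillin, 50 μM IPTG and 0.2% rhamnose. Pooled colonies were amplicon-sequenced on an Illumina HiSeq 2500.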

Sequence | self-splicing fitness (ln) (30 °C) | self-splicing fitness (ln) (37 °C)
UCGGAGCAAUAUUACGAAGG | -2.58 ± 0.45 | –
UCGGAGCAAUAUUACGACGA | -1.41 ± 0.14 | -1.32 ± 0.16
UCGGAGCAAUAUUACGAGCA | -2.39 ± 0.23 | -1.51 ± 0.27
UCGGAGCAAUAUUACGAUGG | -3.2 ± 0.22 | -2.1 ± 0.25
UCGGAGCAAUAUUACGCGUG | 0.284 ± 0.17 | -0.281 ± 0.17
UCGGAGCAAUAUUACGCUAG | -1.87 ± 0.21 | -2.38 ± 0.27
UCGGAGCAAUAUUACGGCCA | -3.25 ± 0.44 | -1.63 ± 0.35
UCGGAGCAAUAUUACGGCUC | -1.81 ± 0.29 | –
UCGGAGCAAUAUUACGGUUG | -3.25 ± 0.24 | -2.48 ± 0.33
UCGGAGCAAUAUUACGUACG | -1.21 ± 0.14 | -0.867 ± 0.18
UCGGAGCAAUAUUACGUCUA | -2.52 ± 0.14 | -1.89 ± 0.14
UCGGAGCAAUAUUACGUGUC | – | -2.26 ± 0.29
UCGGAGCAAUAUUACGUGUG | -3.08 ± 0.18 | -1.63 ± 0.1
UCGGAGCAAUAUUACGUUCU | -3.17 ± 0.2 | -1.41 ± 0.4
UCGUAGCAAUAUUACGAAAC | – | -2.91 ± 0.38
UCGUAGCAAUAUUACGAACG | -2.5 ± 0.21 | -1.94 ± 0.23
UCGUAGCAAUAUUACGAAGA | -3.36 ± 0.5 | –
UCGUAGCAAUAUUACGAAUA | – | -2.55 ± 0.27
UCGUAGCAAUAUUACGACGU | -3.04 ± 0.28 | -1.58 ± 0.17
UCGUAGCAAUAUUACGAGGC | -0.464 ± 0.44 | –
UCGUAGCAAUAUUACGAGUC | -3.23 ± 0.17 | -2.47 ± 0.17

Sequence | self-splicing fitness (ln) (30 °C) | self-splicing fitness (ln) (37 °C)
UCGUAGCAAUAUUACGAUCC | -2.46 ± 0.35 | –
UCGUAGCAAUAUUACGCGGA | -2.54 ± 0.17 | -1.4 ± 0.12
UCGUAGCAAUAUUACGCUCC | -2.47 ± 0.25 | –
UCGUAGCAAUAUUACGCUGU | – | -1.67 ± 0.28
UCGUAGCAAUAUUACGGAAG | -2.55 ± 0.29 | -1.94 ± 0.28
UCGUAGCAAUAUUACGGGAC | – | -2.5 ± 0.44
UCGUAGCAAUAUUACGGGAU | -4.41 ± 0.46 | -1.99 ± 0.31
UCGUAGCAAUAUUACGGUCG | -1.69 ± 0.12 | 0.265 ± 0.13
UCGUAGCAAUAUUACGGUCU | -2.83 ± 0.18 | -1.67 ± 0.16
UCGUAGCAAUAUUACGUAAA | -2.09 ± 0.2 | -0.594 ± 0.17
UCGUAGCAAUAUUACGUCUG | -0.251 ± 0.091 | -0.589 ± 0.12
UCGUAGCAAUAUUACGUGCC | -3.73 ± 0.33 | -1.13 ± 0.25
UCGUAGCAAUAUUACGUUCG | -1.45 ± 0.071 | -0.735 ± 0.086
UCGUAGCAAUAUUACGUUCU | -1.6 ± 0.23 | -1.49 ± 0.24
UCUAAGCAAUAUUACGAAGG | -2.53 ± 0.15 | -0.99 ± 0.16
UCUAAGCAAUAUUACGAAUU | -3.75 ± 0.31 | -2.66 ± 0.25
UCUAAGCAAUAUUACGACAU | -3.444 ± 0.025 | -2.23 ± 0.037
UCUAAGCAAUAUUACGAGAU | – | -0.699 ± 0.22
UCUAAGCAAUAUUACGAUGU | -0.365 ± 0.06 | -0.355 ± 0.074
UCUAAGCAAUAUUACGCACU | -3.04 ± 0.24 | -1.52 ± 0.17
UCUAAGCAAUAUUACGCAUC | -2.99 ± 0.13 | -3.33 ± 0.23
